The numbers were not newly measured in publication PMC2943937, which cites them from elsewhere.

One may read the Kd as the free concentration of one partner at which half of the binding sites on the other are occupied at equilibrium, for simple one-to-one binding.

The target of the data set is CAR (Mus musculus) (UniProt P97792).
UniProt P97792, sequence (P97792 20-237): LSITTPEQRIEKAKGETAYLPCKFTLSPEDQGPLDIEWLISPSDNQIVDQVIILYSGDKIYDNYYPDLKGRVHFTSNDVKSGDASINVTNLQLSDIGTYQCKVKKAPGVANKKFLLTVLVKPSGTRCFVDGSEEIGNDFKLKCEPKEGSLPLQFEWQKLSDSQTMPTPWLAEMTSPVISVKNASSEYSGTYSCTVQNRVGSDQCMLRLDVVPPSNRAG

Consider JAML (from UniProt Q80UL9), for which the equilibrium dissociation constant (Kd) was 5 µM.
